The experiment has as its target BRD-containing DNA-PKcs fragment (aa1878-2700) (UniProt P78527 1878-2700). The experiment is described as follows: pull-down.

The text below walks through data of PMC4695401 (Chemistry & biology, 2015).

Ends that are not written are not given here. PEG = not defined here

Chain of BRD-containing DNA-PKcs fragment (aa1878-2700) (P78527 1878-2700): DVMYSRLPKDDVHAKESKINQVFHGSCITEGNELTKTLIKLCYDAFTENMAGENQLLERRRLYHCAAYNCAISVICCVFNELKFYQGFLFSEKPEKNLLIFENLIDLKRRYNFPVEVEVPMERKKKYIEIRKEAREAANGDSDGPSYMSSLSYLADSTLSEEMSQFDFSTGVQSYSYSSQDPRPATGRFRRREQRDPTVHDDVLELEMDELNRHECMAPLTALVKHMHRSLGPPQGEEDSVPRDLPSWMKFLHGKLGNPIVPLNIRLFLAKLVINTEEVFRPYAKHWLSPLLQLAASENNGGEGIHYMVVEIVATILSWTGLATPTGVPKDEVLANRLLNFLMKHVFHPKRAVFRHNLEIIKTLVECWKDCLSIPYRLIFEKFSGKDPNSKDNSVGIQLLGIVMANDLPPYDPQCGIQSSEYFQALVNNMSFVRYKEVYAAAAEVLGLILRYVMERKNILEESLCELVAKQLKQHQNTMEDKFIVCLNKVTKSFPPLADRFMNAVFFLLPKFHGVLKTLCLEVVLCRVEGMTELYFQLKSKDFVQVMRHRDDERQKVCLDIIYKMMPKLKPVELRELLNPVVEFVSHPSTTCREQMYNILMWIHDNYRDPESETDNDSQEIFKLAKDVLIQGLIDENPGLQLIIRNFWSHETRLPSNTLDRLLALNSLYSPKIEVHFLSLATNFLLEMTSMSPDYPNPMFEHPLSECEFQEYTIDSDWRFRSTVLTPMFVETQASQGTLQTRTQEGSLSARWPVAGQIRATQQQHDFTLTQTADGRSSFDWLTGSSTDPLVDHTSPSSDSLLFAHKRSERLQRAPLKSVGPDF

Take SGRGK(Ac)TGGKARAKAKSR-{PEG-biotin} (reading uncertain) [H2AX K5ac-containing peptide]: the binding result is recorded as “binds”.
